experiment: soluble on expression in E. coli; label from the status in PepcDB or PDB records

Soluble on expression in E. coli, not soluble:
MGSDKIHHHHHHMDDHGRSRPTQPTLYVLDTNVLIHDPNALLNFQEHRVAIPMTVLEELDKLKTGKHTIAAECRQAIRLIDQVLGEATPEQVEGGVPIQRGKNGPSGSLSILMSKRAEPITWLPEHLNDNKIINQLVELKSRHSGVRVVLVTKDINMRLKARACGVDAEDYHTDQLIDDVALLSRGYHSLAGSFWDRVSKVETRQDHGRTWHRVQLTDNLPAVHINEFIVDEQGFVGWIKGIQQDELTILDLHQEPLLHQEAWGLRPRDVYQSLALYALLDPDIHLVNLSGAAGSGKTILALAAAIEQTMVSKRYRRIIATRSVQGLDEDIGFLPGTEAEKMEPWLGAITDNLEALHMDDECTHGSVDYILSKVPLQFKSLNYIRGRSFQQSLILIDECQNLTPHQMKTIITRAGSGSKVICLGNLAQIDTPYLSATSSGLTYLTERFKDFPHGVHVTLQGVPRSVLAEYAEAHM, MGSDKIHHHHHHMDDRIVVTTQQVRALIASQFPQWAALDVQPVDLSGWDNRSFRLGEDMLVRMPSAERYVAQVEKEHRWLPELGPLLPVPIPAPLALGQPGEQYPFCWSVYRWLKGEPLARYLDSIELSAIAIDVAAFLKALHGIDASAGPPAGAHNFHRGGSLAVYDGEARASAARLANEVDQALAMEIWQLALSSHWQGKGVWVHGDIAEGNLLVQDGRLSAVIDFGSSGVGDPSSDLILAWNVLDAHSRAVFRQALGLDEATWQRGRGWALWKALIVLDAERGRNEKMAEWSRRTLREIFADHLEN, MGSDKIHHHHHHMDDRPLFGPFARKGSYSRVQVFDHLFADDRFTALYQEIAILPEVDELMLYRRYLQKEDRVLVHGNFSATLFNTLCAEGYDLYLVESELTRIAGIADPYLHRVYGLSNEVVDVMGSHAFNKIILPGTTIARYSRGELLLFFRNIRHLLATDGQLLISIHNADYLRQNVQPIASRRMEDCTLFYGQKVDRDRLIFNTYLKSASDEKVGYVVEHLYETDTLFEFAKLSRYRGRTLYAGKSISILEFDKIG, MGSDKIHHHHHHMDGGFMQKKVLLVGLGVMGSRIAANFASAGKLAGVYDRNVDKAKNTASMLKVGFYRDLGEAVKNSDIIVTMLYDDRSVKEVYSQMEQGVQGKVFIDMSTISPDTSIEIAKRIKEKGGKMYDAPVIGTSIAVEKKALVVLVGGDLSGYDEVRDLISATANQVVYMGDNGSGLYAKLVNNLFLGSYMASLAEAVRFGRKNGIPDSTISDVLTKYSSARSPTSDLKVPKMISEDYSVQFSIKNMLKDMEIVDRMASEKRIALPVASLALQLFRYLMDSGYGEEDIAAIYRALR, MGSDKIHHHHHHMDIDLARTFLEIARSGSFVAAAERLHLTQTAVTARIQNLEGQLGCRLFVRNRAGARLTADGEHFLGYASQLVQTWDAARRDLPLPDGFRNLLNLGGEVSLCNPLLLNWMRRLREAIPGHAVRVEIGQGADLLKQLEQGALDAALVYQPEYWPGLQVEQLLEEKLVMVRSVLSAEPYLYVDWGPDFRSQHDAALPDRAKAALACNLGPLALQYIMQNGGSGYFRTRVVSSYLDGGTLQRVEQAPEFAYPTYLVYSRERLSPTLRHAFQLLREVVREDSDWSQRWDYVI, MGSDKIHHHHHHMDIDRTILVQIQGLLVFESPLHHDERGYFLENWRKKDLLANGVPESFFHHKLQNNVSVSKQGVIRGMHCQGYEKLMTVAYGTFKMIFIDLRIDSPTYKSVDVIDVQPGRAVFVPGGVANGAQSLVNNGILNYLVADYYDPHKNYLGITPLDKDANLSWDSLLKPIISEKDQAAKSFKEVLEIIESSKKKVALIGSTGAVGKVLFDTLRKQSDIDLSCFNRNNIEEALKDFYDMVICTAPSSEKLLTNLSLKNDDAEIEKLVNVLKNIQTGHMILVSTKSVFDSGARYSAIHQKIYNSVIEAHQNSNTIYIMDTLYGKTLKKGFINDLLSRQWTYISNDIVLDKPELENYYQKVNDQLWSLVEPLPNELLSTLEPISDIYPDEMCYQVTAINDLVSHLMANLNRIDGVKLGIDKSEIFTGRQIKNLLKNPDNSTLGRYFKKQEGDFNLENL, MGSDKIHHHHHHMDIENMKAFNKVAELKSISAAANELHHLQSNMSNKIKNIEKQFQTQLFFRHSNGVELTKEGEKIYQQFKKMILLWEETIDIINNEEETISIGITQSSLPMEFNTIIKEFYQQFPNKKLSIVSGSTSELIPKIANRELTIAYVAELEKENLFQDSQIISQTLSWDKLVFAGNTAGKSVQKILAEERLYVFSKQCYSYRALAALINDFNIPNVSISEINIPETLVEICNNELGVGIIPESIALNYHFLNYETLPTEYAALRKTLIYHADHTISNGEKWLIEKSKPAFKS, MGSDKIHHHHHHMDIKQLQYLCNLEKERHFGRAAEASFVSQPTLSMRLKNLERELDLALINRGNNFEGFTAEGERVLAWAREIVSVYQGLKLEVASLKRGVSGVLRIGAVPQSSIALSSLLAAVNKEYPQLDFQISLFSADQLLEALNAHSVDVGIGFFEFSTLQELHFQASPLTEQGVDLLFHPHHFPQLVGDAPLALDALSDVPLCLAEASRYFRRYLDSHFREMGVSPWVKVESASVLQLIQSVYVGLGCGIVPHGSLIPEMTPALTLRPLQFPPMRRQPAVVIAQAGRATALAQNFFDVAQEWLQAQS, MGSDKIHHHHHHMDKFLYISMSGAKQNMNELALRANNLANANTDGFKSDMAQARSMQAFGEGLPTRVFAMVETPSANFRSGPIKSTGRDLDVAIKGDGWFAVQAQDGSEAYTRSGSLSFDSTGLLHNDRGNPVMGDAGPIVLPLPIEKVTISQDGIISVRPQGATTEVVEEVGRLKLVNPGNAQMMRGEDGLFRLVSGDPAPADPSVSVESGAVEGSNVNSVDEMVSLIDLQRQFELQVKMMKTAEENDRASSSLMRIS, MGSDKIHHHHHHMDKKSSVSPLPTKALSDDKNSPITVWHIGGEDIRLRIPLLLKLREKGFNVGAVGSEDGNAFADNQIPYFRYTLERGINPWADIYTRSQLSALFRQHQPDIVHSFDTKPAMIAPIVAMKTGIPGRVRTITGMGYVFSSTSTLALALRPIYRHLQRQAAIATGITIFQNPDDREYFCKHKMVLDGRDDLVLGSGIDVEGLMKNSAEPEKLAATRRELGLEGQLVVTMISRLVISKGVREYLQVASIVCQQMKNVTFLLIGSVSSEGGQAIPIQEIHQQAGVVRYLGPRNDIPTLLNLSDVFVLPSYYREGVPRVLLEAATMELPLITTDMPGCKEVVKDGWNGLLVPPRDTKALATAILKLLNSPEQRNLMGKRSRVHVQTNFSLNQVADAYADIYNRVLKLPKTLK, MGSDKIHHHHHHMDNLLSIKSLCDEDIDFVTEISRKEGFAPGVGDLRIYQNTDKQGLWVGWLDNNPIGCIAGVRYNQYYGFLGLFLVIEEYRGRGFGLQLWKKALSHLSDLPCVGLEAAPERITDYSKWGFTISSKTTRWQLLGDGKLVEEYSKNDDFDDFSFVEGSSIPQDAVKKFDEKRETTPRPHFLSNWLNHPAGKVIAVIDKKNCCHGFGRIRPCLLQNGDGWRIGPLMADTPMLLQILLKKLIESHPGLIIIDAPGLNKSASEVFRKLGFKSESETFRMYRGSQPPVSMNDVYGLACLELG, MGSDKIHHHHHHMDPTTMPAPAPINYSQTWTFFEGEWHDGNVPIMGPRTHAAWLGSMVFDGARAFEGVTPDLDQHLARINWSATNFKLNALVDKATWLGLVQDGLKRFAGNAELYIRPMYWAQNGVGGGVLFDPDTTNWCLCIYEAPMPKPTGLSITLSPFRRPTAECAPVEAKAGCLYPNNSRAMMEAKSRGFDNCLLRDMLGHIAELGNSNIFMAKDGVVYTPAANGTFLSGITRQRVIELLRGDGITVLETSLSYRDFETADEIFASGNFAKVQPIIRIDDRSLQPGPFYAKARKLYWEFAHG, MGSDKIHHHHHHMDRFDLGIVKVHRIEEWRGTFSPPAELFDGFSPDGWEPHAEEFAPEYYDPVSGKLFAFLQSWVLDTGTQRILFDTGAGNDKDRPNLPIFGNLQTGFLDNLAAAGFQPEDIDVVVCSHIHVDHVGWNTRLVDGRWEPTFRNARYVLPLADRAYWDPQDASAGPAGIGAAVNAGMFDDSVRPIIEAGRAEWAEDGFEVAEGLVLRSCPGHTPGSMMLEVSGGEDTAMFVGDVVHHPAQIYRPEWNSIFCEAPEDARETRRRVLDLAASREALLIPAHFGGSHMARVLRDGSGFRPVLDPMGSG, MGSDKIHHHHHHMDSLVVPGLDTLRRWLDEIGISFFECDSCQALHLPHMQNFDGIFDAKIDLVDNVVLFSALAEVKPSALLALSADLSAINASSLTVKAFIDIQDDNLPKLVVCQSLSIGPGVTMEQFAWFFRQSEEQISMVILEAGANQLLYKGEEEEPAAENVQYHFLH

— the DeepSol protein solubility set
